B1: PLD5 (parent)
chain: WIVDKQHVYIGSAGLDWQSLGQMK

Variants of: B1
Test: protein stability index of a GFP-peptide fusion (GPS, HEK-293T) (PSI 1-6); higher = more stable
Conditions: c terminus: a fixed tail appended
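Further: lentivirally expressed fusions sorted by FACS into six bins by GFP to DsRed ratio, PSI derived from sequencing read proportions per bin multiplied by bin number.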

With WIVDKQHVYIGSAGLDLQSLGQMK as the variant, how does the protein stability index read?
The protein stability index was 1.64.

With WIVDKQHVYIGSAGLDIQSLGQMK as the variant, how does the protein stability index read?
The protein stability index was 1.63.

Which protein stability index does the source give for WIVDKQHVYIGSAGLDAQSLGQMK here?
The protein stability index was 1.97.

With WIVDKQHVYIGSAGLDNQSLGQMK as the variant, how does the protein stability index read?
The protein stability index was 2.17.

For WIVDKQHVYIGSAGLDYQSLGQMK, which protein stability index is on record?
Its protein stability index is 1.89.

For WIVDKQHVYIGSAGLDGQSLGQMK, which protein stability index is on record?
Its protein stability index is 2.17.

With WIVDKWHVYIGSAGLDWQSLGQMK as the variant, how does the protein stability index read?
Its protein stability index is 4.19.

For WIVDKPHVYIGSAGLDWQSLGQMK, which protein stability index is on record?
Its protein stability index is 1.5.

Which protein stability index does the source give for WIVDKRHVYIGSAGLDWQSLGQMK here?
Its protein stability index is 2.3.

With WIVDKEHVYIGSAGLDWQSLGQMK as the variant, how does the protein stability index read?
Its protein stability index is 1.95.

Which protein stability index does the source give for WIVDKVHVYIGSAGLDWQSLGQMK here?
The protein stability index was 2.08.

For WIVDKTHVYIGSAGLDWQSLGQMK, which protein stability index is on record?
Its protein stability index is 1.84.

Which protein stability index does the source give for WIVDKQHVYIGSAGLDWQSLGQSK here?
Its protein stability index is 1.74.

For WIVDKQHVYIGSAGLDWQSLGQFK, which protein stability index is on record?
The protein stability index was 1.69.

With WIVDKQHVYIGSAGLDWQSLGQAK as the variant, how does the protein stability index read?
Its protein stability index is 1.55.

For WIVDKQHVYIGSAGLDWQSLGQIK, which protein stability index is on record?
Its protein stability index is 2.15.

For WIVDKQHVYIGSAGLDWQSLGQLK, which protein stability index is on record?
The protein stability index was 2.12.

With WIMDKQHVYIGSAGLDWQSLGQMK as the variant, how does the protein stability index read?
Its protein stability index is 1.5.

Which protein stability index does the source give for WICDKQHVYIGSAGLDWQSLGQMK here?
Its protein stability index is 1.6.

With WIGDKQHVYIGSAGLDWQSLGQMK as the variant, how does the protein stability index read?
The protein stability index was 2.1.

Which protein stability index does the source give for WIPDKQHVYIGSAGLDWQSLGQMK here?
The protein stability index was 1.97.

For WIVDKQCVYIGSAGLDWQSLGQMK, which protein stability index is on record?
Its protein stability index is 1.37.

Which protein stability index does the source give for WIVDKQDVYIGSAGLDWQSLGQMK here?
The protein stability index was 1.98.

With WIVDKQGVYIGSAGLDWQSLGQMK as the variant, how does the protein stability index read?
Its protein stability index is 2.17.

For WIVDKQRVYIGSAGLDWQSLGQMK, which protein stability index is on record?
The protein stability index was 2.36.

Which protein stability index does the source give for WIVDKQTVYIGSAGLDWQSLGQMK here?
The protein stability index was 2.26.

With WIVDKQWVYIGSAGLDWQSLGQMK as the variant, how does the protein stability index read?
The protein stability index was 3.59.

For WIVDKQPVYIGSAGLDWQSLGQMK, which protein stability index is on record?
Its protein stability index is 2.27.

For WIVDKQHVYIGSAKLDWQSLGQMK, which protein stability index is on record?
The protein stability index was 2.85.

For WIVDKQHVYIGSAILDWQSLGQMK, which protein stability index is on record?
Its protein stability index is 2.97.

For WIVDKQHVYIGSAYLDWQSLGQMK, which protein stability index is on record?
The protein stability index was 1.79.

With WIVDKQHVYIGSACLDWQSLGQMK as the variant, how does the protein stability index read?
Its protein stability index is 2.19.

Which protein stability index does the source give for WIVDKQHVYIGGAGLDWQSLGQMK here?
Its protein stability index is 1.72.

Which protein stability index does the source give for WIVDKQHVYIGFAGLDWQSLGQMK here?
Its protein stability index is 3.2.

With WIVDKQHVYIGQAGLDWQSLGQMK as the variant, how does the protein stability index read?
Its protein stability index is 1.6.

For WIVDKQHVYIGKAGLDWQSLGQMK, which protein stability index is on record?
Its protein stability index is 2.07.

For WIVDKQHVYIGPAGLDWQSLGQMK, which protein stability index is on record?
The protein stability index was 1.89.

Which protein stability index does the source give for WIVDKQHVYIGNAGLDWQSLGQMK here?
Its protein stability index is 1.92.

For WIVDKQHVYIGSAGLNWQSLGQMK, which protein stability index is on record?
The protein stability index was 2.33.

With WIVDKQHVYIGSAGLRWQSLGQMK as the variant, how does the protein stability index read?
Its protein stability index is 1.4.

With WIVDKQHVYIGSAGLCWQSLGQMK as the variant, how does the protein stability index read?
Its protein stability index is 2.39.

With WIVDKQHVYIGSAGLHWQSLGQMK as the variant, how does the protein stability index read?
Its protein stability index is 1.44.

With WIVDKQHVYIGSAGLDWQCLGQMK as the variant, how does the protein stability index read?
Its protein stability index is 2.62.

For WIVDKQHVYIGSAGLDWQPLGQMK, which protein stability index is on record?
The protein stability index was 1.29.

For WIVDKQHVYIGSAGLDWQHLGQMK, which protein stability index is on record?
The protein stability index was 1.81.

Which protein stability index does the source give for WIVDKQHVYIGSAGLDWQQLGQMK here?
The protein stability index was 1.9.

Which protein stability index does the source give for WIVDKQHVYIGSAGLDWQDLGQMK here?
The protein stability index was 1.9.

Which protein stability index does the source give for WIVDKQHVYIGSAGLDWQTLGQMK here?
Its protein stability index is 1.96.

For WIVDKQHVYIGSAGLDWQMLGQMK, which protein stability index is on record?
The protein stability index was 1.7.

Which protein stability index does the source give for WIVDKQHVYIGSAGLDWQWLGQMK here?
Its protein stability index is 2.5.

With WIVDKQHVYIGSAGLDWQSLGQMS as the variant, how does the protein stability index read?
Its protein stability index is 3.37.

With WIVDKQHVYIGSAGLDWQSLGQMV as the variant, how does the protein stability index read?
Its protein stability index is 2.15.

For WIVDKQHVYIGSAGLDWQSLGQMP, which protein stability index is on record?
Its protein stability index is 2.17.

Which protein stability index does the source give for WIVDKQHVYIGSAGLDWQSLTQMK here?
The protein stability index was 1.86.

Which protein stability index does the source give for WIVDKQHVYIGSAGLDWQSLVQMK here?
Its protein stability index is 2.13.

For WIVDKQHVYIGSAGLDWQSLYQMK, which protein stability index is on record?
Its protein stability index is 1.72.

Which protein stability index does the source give for WIVDKQHVYIGSAGLDWQSLRQMK here?
The protein stability index was 1.86.

Which protein stability index does the source give for WIVDKQHGYIGSAGLDWQSLGQMK here?
Its protein stability index is 1.35.

For WIVDKQHMYIGSAGLDWQSLGQMK, which protein stability index is on record?
Its protein stability index is 2.45.

For WIVDKQHVYIGSAGLDWQSLGTMK, which protein stability index is on record?
Its protein stability index is 2.97.

With WIVDKQHVYIRSAGLDWQSLGQMK as the variant, how does the protein stability index read?
The protein stability index was 2.02.

With WIVDKQHVMIGSAGLDWQSLGQMK as the variant, how does the protein stability index read?
The protein stability index was 1.58.

For WIVDKQHVIIGSAGLDWQSLGQMK, which protein stability index is on record?
The protein stability index was 1.45.

Which protein stability index does the source give for WIVDKQHVFIGSAGLDWQSLGQMK here?
The protein stability index was 3.1.

For WIVDKQHVPIGSAGLDWQSLGQMK, which protein stability index is on record?
The protein stability index was 2.48.

For WIVDKQHVYIGSAGLDWQSFGQMK, which protein stability index is on record?
Its protein stability index is 1.61.

With WIVDKQHVYIGSAGLDWQSNGQMK as the variant, how does the protein stability index read?
The protein stability index was 2.

For WIVDKQHVYIGSAGLDWQSHGQMK, which protein stability index is on record?
The protein stability index was 1.76.

With WIVDKQHVYIGSAGLDWQSRGQMK as the variant, how does the protein stability index read?
Its protein stability index is 2.13.

Which protein stability index does the source give for WIVDKQHVYIGSAGLDWQSMGQMK here?
The protein stability index was 2.19.

With WIVDKQHVYIGSAGHDWQSLGQMK as the variant, how does the protein stability index read?
The protein stability index was 1.67.

With WIVDKQHVYIGSAGSDWQSLGQMK as the variant, how does the protein stability index read?
The protein stability index was 1.7.

Which protein stability index does the source give for WIVDKQHVYIGSAGADWQSLGQMK here?
Its protein stability index is 1.8.

For WIVDKQHVYIGSAGTDWQSLGQMK, which protein stability index is on record?
The protein stability index was 2.

Which protein stability index does the source give for RIVDKQHVYIGSAGLDWQSLGQMK here?
The protein stability index was 2.77.

With FIVDKQHVYIGSAGLDWQSLGQMK as the variant, how does the protein stability index read?
The protein stability index was 2.4.

With WTVDKQHVYIGSAGLDWQSLGQMK as the variant, how does the protein stability index read?
The protein stability index was 1.46.

Which protein stability index does the source give for WRVDKQHVYIGSAGLDWQSLGQMK here?
The protein stability index was 2.17.

With WIVDYQHVYIGSAGLDWQSLGQMK as the variant, how does the protein stability index read?
Its protein stability index is 1.61.

Which protein stability index does the source give for WIVDAQHVYIGSAGLDWQSLGQMK here?
The protein stability index was 4.17.

Which protein stability index does the source give for WIVDIQHVYIGSAGLDWQSLGQMK here?
The protein stability index was 3.22.

Which protein stability index does the source give for WIVDKQHVYIGSAGLDWTSLGQMK here?
The protein stability index was 2.07.

With WIVDKQHVYIGSAGLDWISLGQMK as the variant, how does the protein stability index read?
Its protein stability index is 2.62.

For WIVDKQHVYIGSAGLDWHSLGQMK, which protein stability index is on record?
Its protein stability index is 1.96.

With WIVDKQHVYIGSAGLDWCSLGQMK as the variant, how does the protein stability index read?
The protein stability index was 3.36.

For WIVDKQHVYNGSAGLDWQSLGQMK, which protein stability index is on record?
Its protein stability index is 2.16.

With WIVDKQHVYLGSAGLDWQSLGQMK as the variant, how does the protein stability index read?
Its protein stability index is 2.41.

With WIVDKQHVYAGSAGLDWQSLGQMK as the variant, how does the protein stability index read?
The protein stability index was 1.85.

For WIVDKQHVYFGSAGLDWQSLGQMK, which protein stability index is on record?
Its protein stability index is 2.26.

For WIVDKQHVYCGSAGLDWQSLGQMK, which protein stability index is on record?
The protein stability index was 1.64.

Which protein stability index does the source give for WIVDKQHVYGGSAGLDWQSLGQMK here?
The protein stability index was 1.64.

Which protein stability index does the source give for WIVDKQHVYIGSFGLDWQSLGQMK here?
The protein stability index was 2.5.

For WIVDKQHVYIGSIGLDWQSLGQMK, which protein stability index is on record?
Its protein stability index is 3.29.

Which protein stability index does the source give for WIVLKQHVYIGSAGLDWQSLGQMK here?
Its protein stability index is 1.84.
